B1: thermolysin: protease (Sigma-Aldrich), 100 μg/mL in 10 mM Tris-HCl pH 7.5 (protein, UniProt P00800 233-548, looked up)
Thermolysin: ITGTSTVGVGRGVLGDQKNINTTYSTYYYLQDNTRGNGIFTYDAKYRTTLPGSLWADADNQFFASYDAPAVDAHYYAGVTYDYYKNVHNRLSYDGNNAAIRSSVHYSQGYNNAFWNGSQMVYGDGDGQTFIPLSGGIDVVAHELTHAVTDYTAGLIYQNESGAINEAISDIFGTLVEFYANKNPDWEIGEDVYTPGISGDSLRSMSDPAKYGDPDHYSKRYTGTQDNGGVHINSGIINKAAYLISQGGTHYGVSVVGIGRDKLGKIFYRALTQYLTPTSNFSQLRAAAVQSATDLYGSTSQEVASVKQAFDAVGVK
B2: Proteinase K: protease (Roche Applied Science), 100 μg/mL in 10 mM Tris-HCl pH 7.5 (protein, UniProt P06873 106-384, looked up)
Proteinase K: AAQTNAPWGLARISSTSPGTSTYYYDESAGQGSCVYVIDTGIEASHPEFEGRAQMVKTYYYSSRDGNGHGTHCAGTVGSRTYGVAKKTQLFGVKVLDDNGSGQYSTIIAGMDFVASDKNNRNCPKGVVASLSLGGGYSSSVNSAAARLQSSGVMVAVAAGNNNADARNYSPASEPSVCTVGASDRYDRRSSFSNYGSVLDIFGPGTSILSTWIGGSTRSISGTSMATPHVAGLAAYLMTLGKTTAASACRYIADTANKGDLSNIPFGTVNLLAYNNYQA
B3: heat-inactivated proteinase K: proteinase K inactivated by boiling for 40 minutes (protein, UniProt P06873 106-384, looked up)
Proteinase K: B2 Proteinase K
modifications: heat-inactivated

Columns and labels:
Assay in all cases: Microtiter plate biofilm detachment assay
[1] = test system: pre-formed S. lugdunensis biofilms; type: cell-based, Staphylococcus lugdunensis; conditions: 2 hours at 37° C.; safranin OD492; 15 clinical isolates
Experimental: 40 mM sodium metaperiodate (NaIO4, Sigma-Aldrich) in water, 40 μg/mL purified recombinant dispersin B (obtained from Kane Biotech Inc., Winnipeg, Manitoba, Canada) in sodium phosphate buffer (50 mM sodium phosphate (pH 5.8), 100 mM NaCl), 100 μg/mL proteinase K (Roche Applied Science) in 10 mM Tris-HCl pH 7.5, 10 U/mL trypsin (Promega Corp., Madison, Wis.) in 10 mM Tris-HCl pH 7.5, 100 μg/mL chymotrypsin (Sigma-Aldrich) in 10 mM Tris-HCl pH 7.5, and 100 μg/mL thermolysin (Sigma-Aldrich) in 10 mM Tris-HCl pH 7.5 were tested for their ability to detach pre-formed S. lugdunensis biofilms from polystyrene microtiter plate wells. For certain experiments, proteinase K was inactivated by boiling for 40 minutes.
Biofilms grown in TSBgluc1% were formed in wells of microtiter plates and washed twice with deionized water, as described above for the microtiter plate biofilm formation assay. 100 μL of NaIO4, enzyme, or suitable control was carefully added so as not to mechanically detach biofilms on the bottoms of wells. Plates were incubated at 37° C. for 2 hours, and contents of wells were discarded and washed twice with deionized water. Plates were air-dried overnight, stained with 0.1% safranin for 1 minute, and processed as described above to quantify the amount of stained biofilm remaining after treatment, relative to treatment with the control reagent. Four wells were measured for each treatment condition. Assays were repeated two or three times on separate days with similar results.

[2] = test system: pre-formed biofilms of S. carnosus TM300+pCN27; type: cell-based, Staphylococcus carnosus; conditions: 2 hours at 37° C.; safranin OD492
[3] = test system: pre-formed biofilms of S. epidermidis RP62A; type: cell-based, Staphylococcus epidermidis; conditions: 2 hours at 37° C.; safranin OD492

Row | Molecule | biofilm detachment compared to buffer [1] | biofilm detachment compared to buffer [2] | biofilm detachment compared to buffer [3]
1 | B1 | detach S. lugdunensis biofilms selectively | – | –
2 | B2 | completely removed | no effect | no effect
3 | B3 | detachment effect was found to be abolished | – | –

From patent US8802414B2, “Methods and materials for reducing biofilms” (priority 2007, dated 2014)
